Columns and labels:
Assay in all cases: pull-down binding Z-score (relative to library population); higher = stronger binding
Conditions in all cases: RNA library: Library-2
[1] = tested on: TO-3-N3 (biotin conjugate)
Summary of the method: (§1)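 To score binding, a beads-only signal was subtracted, barcoded replicate probes were averaged with the highest and lowest dropped, and the value was converted to a Z-score using the library mean and standard deviation. The input was 1 μg of Cy5- or Cy3-end-labelled RNA library, heat-folded in phosphate/NaCl/KCl buffer and mixed for 60 min at 25 °C with streptavidin beads carrying 100 pmol of biotin-conjugated small molecule. Bound RNA was eluted in hot SDS and hybridised to a DNA barcode microarray at 55.5 °C for 20 h.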

[2] = tested on: TO-N3-2 (biotin conjugate)
Summary of the method: as §1

[3] = tested on: TO-3-N3-2 (biotin conjugate)
Summary of the method: as §1

TO-N3 (biotin conjugate) = tested on: TO-N3 (biotin conjugate)
Summary of the method: as §1

Sequence	pull-down binding Z-score [1]	pull-down binding Z-score [2]	pull-down binding Z-score [3]	pull-down binding Z-score (TO-N3 (biotin conjugate))
UGGGGAGUUGAACCUA [IAV_invivo_PB2_1_Motif_19+IAV_invivo_PB2_1_Motif_19]	0.448	-0.437	0.0385	0.376
UGGGGAUCACAACUCA [IAV_invivo_PB1_2_Motif_11+IAV_invivo_PB1_2_Motif_11]	0.479	-0.317	-0.0635	0.158
UGGGGCGCGAUCAAAACAACGUCGGCCCCA	0.2	-0.439	0.157	0.0437
UGGGGUUGGGGUUGGGGUUGGGGUUGGGGUUGGGGU [G4_r(UGGGGU)6]	7.92	4.95	8.72	6.75
UGGGGUUGGGGUUGGGGUUGGGGUUGGGGUUGGGGUUGGGGUUGGGGU [G4_r(UGGGGU)8]	7.69	4.93	8.63	6.59
UGGGUAGAAUUCGAUCUGUCUAUCCA	-0.51	-0.327	-0.21	-0.686
UGGGUUACAUCCUACACAGGCACCUACACACCUCAGUGUUGACACUAAAUUCAAAACUGAAGGUUUAUGUGUUGACAUACCUGGCAUACCUAAGGACAUGACCUA	-0.497	0.213	-0.293	-0.257
UGGGUUAUCUUCAACCUA	-0.534	-0.937	-0.424	-0.726
UGGGUUGGGUUGGGUUGGGUUGGGUUGGGU [G4_r(UGGGU)6]	8.7	5.72	10.2	7.32
UGGGUUGGGUUGGGUUGGGUUGGGUUGGGUUGGGUUGGGU [G4_r(UGGGU)8]	8.92	5.96	10.4	7.56
UGGUAAUGCUGCUAUCAGCGAUUAUGACUACUAUCGUUAUAAUCUACCA	-0.937	-0.119	-0.385	-1.09
UGGUACUAUCUAUACAGAACUGGAACCA [SHAPE_invitro_SARS-CoV-2_Motif_233]	-0.352	-0.456	-0.345	-0.445
UGGUACUGAAGAUGAUUACCA [SHAPE_invitro_SARS-CoV-2_Motif_57]	-0.272	0.00913	0.306	-0.278
UGGUAUUCUUGCUA	-0.297	-0.632	-0.339	-0.551
UGGUGUUAGAAGGUCCUUUUAUGUCUAUGCUAAUGGAGGUAAAGGCUUUUGCAAACUA [SHAPE_invitro_SARS-CoV-2_Motif_149]	-0.638	-0.562	-0.276	-0.58
UGGUUGGUUGGUUGGUUGGUUGGU [G4_r(UGGU)6]	7.93	4.58	7.83	6.68
UGGUUGGUUGGUUGGUUGGUUGGUUGGUUGGU [G4_r(UGGU)8]	8.68	5.6	9.27	7.53
UGGUUUCCAACCCACUAAUGGUGUUGGUUACCA	-0.662	-1.18	-0.442	-1.05
UGGUUUGUAACACAAAGGAAUUUUUAUGAACCA [SHAPE_invivo_SARS-CoV-2_Motif_466]	0.139	-0.605	0.046	-0.0419
UGGUUUUGCUAAAUUCCUAAAAACUA [DMSMaPseq_invitro_SARS-CoV-2_Motif_244]	-0.45	-0.866	-0.0765	-0.632
UGUAAAUCACAUAAACCACCCAUUAGUUUUCCAUUGUGUGCUAAUGGACAAGUUUUUGGUUUAUA	-0.529	-0.995	0.371	-0.491
UGUAAGCACAAGCUGAUGAGUACGAACUUAUGUACUCAUUCGUUUCGGAAGAGACAGGUACGUUAAUAGUUAAUAGCGUACUUCUUUUUCUUGCUUUCG [DMSMaPseq_invitro_SARS-CoV-2_Multi_80_ComplexLevel_1]	-1.03	-0.373	-0.529	-0.883
UGUACAUACAGCUAAUAAAUGGGAUCUCAUUAUUAGUGAUAUGUACG [DMSMaPseq_invitro_SARS-CoV-2_Motif_370]	-0.362	-0.223	-0.188	-0.461
UGUACAUCUUCUUUGCAUCAUUUUAUUAUGUAUGGAAAAGUUAUGUGCA [SHAPE_invitro_SARS-CoV-2_Motif_147]	-0.791	-0.553	-0.347	-0.813
UGUACUUGGAUUGGCUGCAAUCAUGCAAUUGUUUUUCAGCUAUUUUGCAGUACA [SHAPE_invivo_SARS-CoV-2_Motif_149]	-0.482	-0.907	-0.559	-0.78
UGUAUGAAAAUGCCUUUUUACCUUUUGCUAUGGGUAUUAUUGCUAUGUCUGCUUUUGCAAUGAUGUUUGUCAAACAUAAGCAUGCA	-0.713	-0.447	0.0997	-0.547
UGUCACAUCAAUCUGACA	-0.221	-0.472	-0.268	-0.416
UGUCAUUACUUCAGGUGAUGGCA	0.0463	-1.31	-0.0892	-0.14
UGUCCGUGAUCCACAGACA	-0.695	-0.685	-0.597	-0.9
